# Data from paper PMC13397619.
# B1: NLV2 TCR alpha chain (CDR3α only) (parent)
# chain: AGPMKTSYDKVI
# partner: MLVPMVATV
# Variants of: B1
# Assay: T-Switch: Jurkat TCRβ−/− cells expressing a CDR3 saturation-mutagenesis library, stained with two peptide-HLA-A*02:01 tetramers (original and novel peptide) plus anti-CD3, FACS-sorted into four gates, gDNA sequenced
# Conditions: with HLA-A*02:01 with peptide … (NLV 3-1, the novel peptide), tetramers 1 µg/mL, 30 min on ice, SP, DP and SW gates expanded about 10 days between rounds ('two to three rounds of selection' in the Methods), gate SW: higher = more of the variant in the gate that binds the novel peptide and not the original one = switched binding. Fold enrichment of the CDR3 variant in one FACS gate of a two-tetramer stain, unresolved parent, parent is a CDR3 fragment, scale: fold enrichment, numbering: sequential-on-construct, sequence starts at 1
row,Variant,enrichment
1,[…] (CDR3 as printed); Y8R derived by comparing it with the table's wild-type CDR3 AGPMKTSYDKVI,0
2,[…] (CDR3 as printed); M4W derived by comparing it with the table's wild-type CDR3 AGPMKTSYDKVI,0
3,[…] (CDR3 as printed); S7A derived by comparing it with the table's wild-type CDR3 AGPMKTSYDKVI,0
4,[…] (CDR3 as printed); T6F derived by comparing it with the table's wild-type CDR3 AGPMKTSYDKVI,0
5,[…] (CDR3 as printed); T6Q derived by comparing it with the table's wild-type CDR3 AGPMKTSYDKVI,0
6,[…] (CDR3 as printed); Y8E derived by comparing it with the table's wild-type CDR3 AGPMKTSYDKVI,52.6
7,[…] (CDR3 as printed); S7N derived by comparing it with the table's wild-type CDR3 AGPMKTSYDKVI,0
8,[…] (CDR3 as printed); P3H derived by comparing it with the table's wild-type CDR3 AGPMKTSYDKVI,0
9,[…] (CDR3 as printed); V11S derived by comparing it with the table's wild-type CDR3 AGPMKTSYDKVI,0
10,[…] (CDR3 as printed); T6A derived by comparing it with the table's wild-type CDR3 AGPMKTSYDKVI,0
11,[…] (CDR3 as printed); M4H derived by comparing it with the table's wild-type CDR3 AGPMKTSYDKVI,0
12,[…] (CDR3 as printed); Y8H derived by comparing it with the table's wild-type CDR3 AGPMKTSYDKVI,0
13,[…] (CDR3 as printed); Y8D derived by comparing it with the table's wild-type CDR3 AGPMKTSYDKVI,0.474
14,[…] (CDR3 as printed); P3Q derived by comparing it with the table's wild-type CDR3 AGPMKTSYDKVI,0
15,[…] (CDR3 as printed); V11A derived by comparing it with the table's wild-type CDR3 AGPMKTSYDKVI,0
16,[…] (CDR3 as printed); T6E derived by comparing it with the table's wild-type CDR3 AGPMKTSYDKVI,0
17,[…] (CDR3 as printed); S7V derived by comparing it with the table's wild-type CDR3 AGPMKTSYDKVI,0
18,[…] (CDR3 as printed); P3K derived by comparing it with the table's wild-type CDR3 AGPMKTSYDKVI,0
19,[…] (CDR3 as printed); V11N derived by comparing it with the table's wild-type CDR3 AGPMKTSYDKVI,0
20,[…] (CDR3 as printed); T6C derived by comparing it with the table's wild-type CDR3 AGPMKTSYDKVI,0
21,[…] (CDR3 as printed); Y8V derived by comparing it with the table's wild-type CDR3 AGPMKTSYDKVI,0
22,[…] (CDR3 as printed); Y8K derived by comparing it with the table's wild-type CDR3 AGPMKTSYDKVI,0
23,[…] (CDR3 as printed); V11K derived by comparing it with the table's wild-type CDR3 AGPMKTSYDKVI,0
24,[…] (CDR3 as printed); P3A derived by comparing it with the table's wild-type CDR3 AGPMKTSYDKVI,0
25,[…] (CDR3 as printed); V11Q derived by comparing it with the table's wild-type CDR3 AGPMKTSYDKVI,0
26,[…] (CDR3 as printed); Y8G derived by comparing it with the table's wild-type CDR3 AGPMKTSYDKVI,0
27,[…] (CDR3 as printed); S7R derived by comparing it with the table's wild-type CDR3 AGPMKTSYDKVI,0
28,[…] (CDR3 as printed); Y8P derived by comparing it with the table's wild-type CDR3 AGPMKTSYDKVI,0

row,Variant,enrichment
1,[…] (CDR3 as printed); P3L derived by comparing it with the table's wild-type CDR3 AGPMKTSYDKVI,0
2,[…] (CDR3 as printed); Y8M derived by comparing it with the table's wild-type CDR3 AGPMKTSYDKVI,0
3,[…] (CDR3 as printed); T6P derived by comparing it with the table's wild-type CDR3 AGPMKTSYDKVI,0
4,[…] (CDR3 as printed); P3R derived by comparing it with the table's wild-type CDR3 AGPMKTSYDKVI,0
5,[…] (CDR3 as printed); P3V derived by comparing it with the table's wild-type CDR3 AGPMKTSYDKVI,0.657
6,[…] (CDR3 as printed); Y8T derived by comparing it with the table's wild-type CDR3 AGPMKTSYDKVI,0
7,[…] (CDR3 as printed); T6D derived by comparing it with the table's wild-type CDR3 AGPMKTSYDKVI,0
8,[…] (CDR3 as printed); S7I derived by comparing it with the table's wild-type CDR3 AGPMKTSYDKVI,0
9,[…] (CDR3 as printed); Y8Q derived by comparing it with the table's wild-type CDR3 AGPMKTSYDKVI,27.8
10,[…] (CDR3 as printed); Y8S derived by comparing it with the table's wild-type CDR3 AGPMKTSYDKVI,0
11,[…] (CDR3 as printed); S7G derived by comparing it with the table's wild-type CDR3 AGPMKTSYDKVI,0
12,[…] (CDR3 as printed); M4T derived by comparing it with the table's wild-type CDR3 AGPMKTSYDKVI,0
13,[…] (CDR3 as printed); V11P derived by comparing it with the table's wild-type CDR3 AGPMKTSYDKVI,0
14,[…] (CDR3 as printed); P3T derived by comparing it with the table's wild-type CDR3 AGPMKTSYDKVI,0
15,[…] (CDR3 as printed); T6K derived by comparing it with the table's wild-type CDR3 AGPMKTSYDKVI,0.282
16,[…] (CDR3 as printed); M4N derived by comparing it with the table's wild-type CDR3 AGPMKTSYDKVI,0
17,[…] (CDR3 as printed); T6H derived by comparing it with the table's wild-type CDR3 AGPMKTSYDKVI,0
18,[…] (CDR3 as printed); S7F derived by comparing it with the table's wild-type CDR3 AGPMKTSYDKVI,0
19,[…] (CDR3 as printed); S7C derived by comparing it with the table's wild-type CDR3 AGPMKTSYDKVI,0
20,[…] (CDR3 as printed); Y8F derived by comparing it with the table's wild-type CDR3 AGPMKTSYDKVI,0
21,[…] (CDR3 as printed); T6M derived by comparing it with the table's wild-type CDR3 AGPMKTSYDKVI,0
22,[…] (CDR3 as printed); T6L derived by comparing it with the table's wild-type CDR3 AGPMKTSYDKVI,0
23,[…] (CDR3 as printed); M4S derived by comparing it with the table's wild-type CDR3 AGPMKTSYDKVI,0
24,[…] (CDR3 as printed); V11L derived by comparing it with the table's wild-type CDR3 AGPMKTSYDKVI,0
25,[…] (CDR3 as printed); Y8W derived by comparing it with the table's wild-type CDR3 AGPMKTSYDKVI,0
26,[…] (CDR3 as printed); V11D derived by comparing it with the table's wild-type CDR3 AGPMKTSYDKVI,0
27,[…] (CDR3 as printed); M4R derived by comparing it with the table's wild-type CDR3 AGPMKTSYDKVI,0
